Assay results: publication PMC2990333
Blank lines part the entries; values can stand above or below the substance they belong to.

What was measured:
[1] = target: 25kD protein (immunoreactive P29 form of Drosophila) (Drosophila melanogaster); test: not stated; dimerisation of the 25kD protein under in vitro conditions
[2] = target: Aedes aegypti sterol carrier protein-2-like-2 (SCP-2-L2) (Aedes aegypti); test: crystal structure; ligand-bound X-ray structure at 1.7-angstrom resolution, with bound fatty acid
[3] = target: OBP48 expressed in lepidopteran cells (Anopheles gambiae); test: co-IP + cross-linking; OBPs expressed in lepidopteran cells, examined for in vitro interactions in the absence of exogenously added ligands; chemical cross-linking

stoichiometry N [1]: 2
Substance: 25kD protein (immunoreactive P29 form of Drosophila) (natural protein)

stoichiometry N [2]: 2
Substance: Aedes aegypti sterol carrier protein-2-like-2 (SCP-2-L2) (natural protein)

stoichiometry N [3]: 2
Substance: OBP48 expressed in lepidopteran cells (natural protein)
